Here are results for three substances from US6465220.

Data set [1] has as its system GalNAc4TAP24 glycopeptide.

soluble human GalNAc-T4 (pAcGP67-GalNAc-T4506Vsol), amino acid residues 32-578, sequence (chain, as listed by the source): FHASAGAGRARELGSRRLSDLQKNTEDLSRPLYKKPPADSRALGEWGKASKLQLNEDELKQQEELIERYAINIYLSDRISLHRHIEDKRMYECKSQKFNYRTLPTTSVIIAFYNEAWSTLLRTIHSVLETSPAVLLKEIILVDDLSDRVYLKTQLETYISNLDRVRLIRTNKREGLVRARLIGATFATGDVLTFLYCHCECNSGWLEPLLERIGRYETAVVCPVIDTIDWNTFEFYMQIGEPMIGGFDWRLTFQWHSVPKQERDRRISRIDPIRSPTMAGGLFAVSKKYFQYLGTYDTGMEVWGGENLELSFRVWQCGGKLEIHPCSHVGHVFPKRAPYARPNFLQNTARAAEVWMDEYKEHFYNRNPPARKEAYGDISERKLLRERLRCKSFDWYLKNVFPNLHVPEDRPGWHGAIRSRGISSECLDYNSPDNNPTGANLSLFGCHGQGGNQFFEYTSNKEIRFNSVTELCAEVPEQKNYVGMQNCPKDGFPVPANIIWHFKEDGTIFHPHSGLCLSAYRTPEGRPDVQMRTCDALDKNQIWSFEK
soluble recombinant human GalNAc-T2 (pAcGP67-GalNAc-T2-sol), sequence (chain, as listed by the source): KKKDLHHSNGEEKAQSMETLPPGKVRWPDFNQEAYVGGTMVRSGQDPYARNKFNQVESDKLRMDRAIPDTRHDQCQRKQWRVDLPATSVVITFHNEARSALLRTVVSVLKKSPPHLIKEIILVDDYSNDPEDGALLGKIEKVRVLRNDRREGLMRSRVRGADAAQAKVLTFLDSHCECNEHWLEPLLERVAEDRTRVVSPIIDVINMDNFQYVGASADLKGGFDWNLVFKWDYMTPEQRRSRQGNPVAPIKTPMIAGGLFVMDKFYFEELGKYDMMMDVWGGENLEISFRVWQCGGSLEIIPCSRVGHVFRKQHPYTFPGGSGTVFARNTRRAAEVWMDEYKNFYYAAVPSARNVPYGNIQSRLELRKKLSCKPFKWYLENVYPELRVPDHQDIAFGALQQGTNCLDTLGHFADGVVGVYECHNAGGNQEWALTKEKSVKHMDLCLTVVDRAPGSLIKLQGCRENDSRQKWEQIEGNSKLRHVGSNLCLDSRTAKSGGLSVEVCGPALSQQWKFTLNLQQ
PSGL-1b peptide, sequence (chain, as listed by the source): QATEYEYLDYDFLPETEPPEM
hCG-β peptide, sequence (chain, as listed by the source): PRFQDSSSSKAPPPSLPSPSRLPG
full coding human GalNAc-T4 (pVL-GalNAc-T4506Vfull) expressed in Sf9 cells, sequence (chain, as listed by the source): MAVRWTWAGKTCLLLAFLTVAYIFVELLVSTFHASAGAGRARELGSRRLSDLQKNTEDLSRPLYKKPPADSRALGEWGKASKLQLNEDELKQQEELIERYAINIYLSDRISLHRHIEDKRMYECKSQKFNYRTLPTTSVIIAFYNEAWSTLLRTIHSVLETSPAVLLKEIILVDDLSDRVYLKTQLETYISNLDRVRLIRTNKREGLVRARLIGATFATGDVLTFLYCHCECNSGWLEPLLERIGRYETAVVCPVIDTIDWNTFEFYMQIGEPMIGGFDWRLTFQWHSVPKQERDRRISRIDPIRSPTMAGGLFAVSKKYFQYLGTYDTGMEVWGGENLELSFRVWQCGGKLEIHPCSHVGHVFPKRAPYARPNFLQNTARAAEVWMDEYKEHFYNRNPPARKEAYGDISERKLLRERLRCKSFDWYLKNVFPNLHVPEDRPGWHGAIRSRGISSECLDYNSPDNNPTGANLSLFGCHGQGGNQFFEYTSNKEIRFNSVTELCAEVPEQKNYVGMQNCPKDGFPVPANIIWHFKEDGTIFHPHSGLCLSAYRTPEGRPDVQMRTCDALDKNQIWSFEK

In the case of “full coding human GalNAc-T4 (pVL-GalNAc-T4506Vfull) expressed in Sf9 cells”, the “GalNAc incorporation by MALDI-TOF of HPLC-purified product” value in data set [1] was “no incorporation was detected”.
With “soluble human GalNAc-T4 (pAcGP67-GalNAc-T4506Vsol), amino acid residues 32-578”, the GalNAc-transferase activity at 0.25 mM peptide (milliunits/mg) stood at 2 in the data set on Muc1a′ peptide; 7.1 in data set [1]; 42 in the data set on EA2 peptide; 53 in the data set on Muc7 peptide; 0.7 with Muc1b′ peptide; 1.4 in the data set with PSGL-1b peptide. In addition, the GalNAc-transferase activity at 0.25 mM peptide (milliunits/mg) with Muc2 peptide was determined as 29; in the data set on TAP24 peptide it was 2.7. The GalNAc-transferase activity at 1 mM peptide (milliunits/mg) with Muc1a′ peptide was 6.7; in the data set on Muc1b′ peptide, 0.9. For the same substance, the GalNAc-transferase activity at 0.06 mM peptide (milliunits/mg) in data set [1] was 4.4; with EA2 peptide it was 15; in the data set on Muc7 peptide, 21; in the data set on PSGL-1b peptide, 1.2; with Muc2 peptide, 9; in the data set with TAP24 peptide it was 0.8. Also, the Km for acceptor substrate came to 90 µM in data set [1], 2190 µM with EA2 peptide, 480 µM in the data set on Muc7 peptide and 20 µM with PSGL-1b peptide. The Vmax in [1] is 0.007 nmol/min/µg; in the data set with EA2 peptide, 0.44 nmol/min/µg; in the data set on Muc7 peptide, 0.25 nmol/min/µg; with PSGL-1b peptide, 0.003 nmol/min/µg.
Consider “soluble recombinant human GalNAc-T2 (pAcGP67-GalNAc-T2-sol)”, for which the GalNAc-transferase activity at 0.25 mM peptide (milliunits/mg) in the data set on Muc1a′ peptide came out at 28; in [1], 0; with EA2 peptide it was 376; with hCG-β peptide, 74; in the data set with Muc7 peptide, 396; with PSGL-1a peptide, 0. The GalNAc-transferase activity at 0.25 mM peptide (milliunits/mg) with Muc1b′ peptide was 198; with PSGL-1b peptide, 0.3; in the data set on Muc2 peptide, 128; in the data set on TAP24 peptide, 222. Moreover, the figures for the GalNAc-transferase activity at 1 mM peptide (milliunits/mg) in the data set on Muc1a′ peptide and in the data set with Muc1b′ peptide were 83 and 582, respectively. The GalNAc-transferase activity at 0.06 mM peptide (milliunits/mg) turned out to be 0 in data set [1]; 152 in the data set with EA2 peptide; 22 in the data set on hCG-β peptide; 737 in the data set on Muc7 peptide; 0 in the data set on PSGL-1a peptide; 0.3 in the data set with PSGL-1b peptide. For the same substance, the GalNAc-transferase activity at 0.06 mM peptide (milliunits/mg) amounted to 169 with Muc2 peptide and 73 with TAP24 peptide. Moreover, the Km for acceptor substrate in the data set on EA2 peptide is 850 µM; in the data set with Muc7 peptide, 15 µM; with PSGL-1b peptide, more than 2000 µM. Further, the Vmax worked out at 1.8 nmol/min/µg in the data set with EA2 peptide and 0.64 nmol/min/µg in the data set on Muc7 peptide. The GalNAc-transferase activity entry in the data set on PSGL-1a peptide and in the data set with PSGL-1b peptide was “exhibited poor activities with both peptide designs” each time.
